Assay results from the supplement of paper PMC12042874.
± gives the uncertainty stated by the source.

assay: amyloid nucleation score (Sup35N fusion, yeast selection) (log enrichment); library NNK3; higher = more nucleation; inactive = no reads after selection
Method in brief: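 Plasmid inserts were Illumina-sequenced at input and output from psi-negative yeast expressing Sup35N fused to peptides of 20 random codons. The yeast were induced with 100 μM copper sulfate for 24 hours and grown 7 days at 30°C on medium lacking adenine and uracil, and sequences with under 100 input reads were excluded. Nucleation score is the DiMSum log enrichment of output over input reads, centred on the mode score of non-aggregating sequences.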

| Substance | amyloid nucleation score |
| --- | --- |
| VCWSYNSNL | inactive |
| FGTSSEF | inactive |
| VYCPELLSRCGQVGSTCCDR | inactive |
| AFFSFNAD | inactive |
| FVFSRNG | inactive |
| PRDGERFLG | inactive |
| SSYCGHCNYEPRSSWFILFF | 1.61 ± 0.072 |
| LKRLHFKSGDMSGQRQFRGS | inactive |
| SRTLIIIVYFTTNIIVLEFY | inactive |
| SWNVFFFSGFRVPYYALTGV | 0.254 ± 0.82 |
| LIIMNVKSSSSHKRAGVST | inactive |
| AGPVMRRLFVNGWFVVFGRM | inactive |
| THSGQEEWLVNKDAS | inactive |
| VGAYYGMFNSLMSFLQWISQ | 0.733 ± 0.2 |
| WCHLFLFMCTSSLFSGWDDG | inactive |
| CFQDRQKLF | inactive |
| HISGYNDYMFDP | inactive |
| DSPTE | inactive |
| IKIHYF | inactive |
| PSENKRGFPDLVFAMINSGI | inactive |
| RDSCFNIDFKEEVVRKVSMA | 0.827 ± 0.18 |
| RSSLLSRVLSEITHSWQLCA | inactive |
| GCFYCQALNLHPLTSVHAD | inactive |

| Substance | amyloid nucleation score |
| --- | --- |
| KLLCSLNLVIADEFLTKKGD | 1.85 ± 0.099 |
| RQVFNAIAFFVLHR | -0.299 ± 0.69 |
| NLGLRGPLLAMKCMIACYVQ | inactive |
| FLRFSAVDVSNGGNSMLL | inactive |
| LFKMSV | inactive |
| SPFPLEPFS | inactive |
| KVTMPLQSYTLYSMYICLLS | inactive |
| ISVGVLSVCCGIC | 2.57 ± 0.078 |
| HLCRFYSSFGDSTSSRLSGN | inactive |
| TLMYFILYYIGLYPE | inactive |
| FVSPYRNHVGVGSDADWGFR | inactive |
| LISNFVWLQLRCA | inactive |
| CNSVRLGFQWAKYVLWRHRG | inactive |
| YVIVYS | inactive |
| NSTFRFTVTRFCIAPSEYIG | 0.509 ± 0.25 |
| SVCSCNAKYARIGMMLFLLG | 1.16 ± 0.075 |
| LIISLGTVVIDVQSKKSLLL | 2.29 ± 0.079 |
| FNHPNQGVCIHCISGKGWTR | inactive |
| SKVQVIFLSSFFGTIQLWVL | inactive |
| VIMSRCPVHIDMVPRDAQPL | inactive |
| NRRVCYSLISMGIVLVCRYG | 0.306 ± 0.22 |
| AELVNIF | inactive |
| YPGMQEYVLGWNVWREK | inactive |

| Substance | amyloid nucleation score |
| --- | --- |
| MLFYCN | inactive |
| NVINSMGLSKQIIPSQVQSS | inactive |
| RKTSSY | -0.725 ± 0.84 |
| TGIYAF | inactive |
| WHSKKLRICHLGCFVQTDWV | inactive |
| VVLAMTHSYRNFKMFRDHYH | 0.957 ± 0.12 |
| LIDKCGKHQTFMGC | inactive |
| YELPDWSRYKQFVLLG | inactive |
| DVNVALIHSDL | inactive |
| LVNLTVTYISQYFPFYDSPT | 2.92 ± 0.062 |
| PSFMLVVIKVTYVMADSNMR | inactive |
| RYTIGFHLSMDSAYSISFYP | inactive |
| PYKTWTINVLLWNLSCTFLN | 1.49 ± 0.096 |
| DRAAMFSNSVQSCICTWMNI | 2.17 ± 0.061 |
| CLSTFLGRSEKPL | inactive |
| HMCIG | inactive |
| PKYALMRFRFYSGLR | inactive |
| DLQRLSNRKSKGLWSGCIGK | inactive |
| PLYVQSG | inactive |
| YINSATRFDKFM | inactive |
| ELNMAVDAVYCTGSVHKIVF | 1.36 ± 0.13 |
| SCEDLWNNMIAWMFATSRR | 1.26 ± 0.1 |
| SLCFIWTCMSLVVHTALSVH | inactive |

| Substance | amyloid nucleation score |
| --- | --- |
| SSLSDSDGSFLDIMGAYYWA | inactive |
| TFRFLSRLSRTLWAFSKGLC | inactive |
| RQGPIYPWVLC | inactive |
| VIIINRVIENRWSDRHEITN | 2.57 ± 0.053 |
| SHKNGFFSQETR | inactive |
| FYKGKG | inactive |
| IGVLCALDGISRIAFFSLLL | inactive |
| NSHWWCSGFVSVVKIVAEFG | 1.23 ± 0.1 |
| LLSVICLTSIHF | 2.74 ± 0.067 |
| FSLLPKCLSLSGDRNGFKMC | inactive |
| DGRRSMATCWIHSNCPWRAS | inactive |
| VGQCFNELVRFNRSGISRLV | inactive |
| CRKTESAMRWK | inactive |
| FQPMV | inactive |
| NHIYGMSAFQSGHCGPCRSN | inactive |
| ELSTWLAYYVRLGYWCLIMM | inactive |
| IRITNDNFVVRLVSQTVGLK | inactive |
| ALYWTEYQ | inactive |
| TARVMILP | inactive |
| SLKSPLRCFLILHSPALCLG | inactive |
| PRSEVTRTLYIFSVWHQMRI | inactive |
| NKVYLGLTKLHSSDPSEMAC | 2.18 ± 0.067 |
| GWVFTMDFTSYLECTDMGRS | inactive |

| Substance | amyloid nucleation score |
| --- | --- |
| TKNDRN | inactive |
| GTRNMKPLTKAETSRLG | 0.139 ± 0.45 |
| DGCGFIVTFVSAGVRSWLGI | 0.712 ± 0.29 |
| TIPYFQYDVFHKEDNWTGML | inactive |
| KMLQLVVGIRILVNRMSWSR | inactive |
| PGIPGPQLIYRDTILTLECM | 0.03 ± 0.88 |
| SDNGEIMILYRLRAVGDFE | inactive |
| VVTASYWLLCLSLYFSAS | inactive |
| YGRLPSWIKWFFLVVYIRVL | inactive |
| GRARMFGLGRVFKVCMKLRA | -0.543 ± 0.54 |
| RSIYCLRVNTGYMNKFVVLR | inactive |
| ASANLRILYLWTIGNVLNAY | inactive |
| VHSCLLCHWSFYWLLFFMRS | inactive |
| ADFTRGGT | inactive |
| DEMPRVSMRVNNMPGCDNDE | inactive |
| VSRMARYRLLTYRSAFNSML | -0.605 ± 1.2 |
| SGGVFCYQGSPGVVY | inactive |
| TCSHIIPYWYGVRNSQVRYS | inactive |
| MSADSCCSSCLVSTGTRVTF | inactive |
| CYDTFGLFYCFLVWVWDLIV | inactive |
| DNDLQSTKSPLWGVHQANVR | inactive |
| RSYTDMCP | inactive |
| LTICAFVVYVFIYKYKMGVM | inactive |

| Substance | amyloid nucleation score |
| --- | --- |
| QWKVLLRACHRLEDALCCIS | inactive |
| SQFDEMLFSKMEPWQVLFTM | inactive |
| NGLVQSMFVIRSLAQRNERR | inactive |
| TRLLWSAEFGEGNDMTSLKF | 0.073 ± 0.87 |
| ITCLNLINGGYHP | -0.066 ± 0.3 |
| VYVLFRLCNNRFRKELIATL | inactive |
| ISVNALYNLMHKCNYNAKLR | inactive |
| YMLSGPRWFV | inactive |
| MSSNFTRS | inactive |
| KPWGPGIIGSGSRIMTDVVE | inactive |
| CYNAKCHFIGYDVAGNSGVW | inactive |
| APRGVVLPWTLDIASSLLTP | inactive |
| DSRAGRGMSFLRFNRRSVDE | 0.209 ± 0.38 |
| LNWSKEAWCSYNILLNYGGW | inactive |
| NIIDKW | -0.357 ± 1.4 |
| SFGTLQKVK | inactive |
| WSINAIGQTHINSEVLGVLF | inactive |
| SSFAGVFNFRDGTQSQILYV | inactive |
| HWKLHALGRWAGQGFTR | inactive |
| NLWLKSFWSLRLFLRDL | 0.68 ± 0.23 |
| FMGTGHSFGSQNPVSLILKS | inactive |
| LCRLGSSRSVSGVRLGCTLR | inactive |
| TSYVEVGFLVSKYQTWWAVN | inactive |

| Substance | amyloid nucleation score |
| --- | --- |
| IELRM | inactive |
| NYCDIYQGSNIF | inactive |
| IGCWTSYSWNRSRKFYMQQE | 0.799 ± 0.17 |
| HLNGVALFNW | 0.917 ± 0.11 |
| KCLEGLMVVANDWWVKCFTS | 0.671 ± 0.24 |
| SCYSLSSESSCSVGMCSTLG | inactive |
| YITMNVHSRDASVRWLDF | inactive |
| FSIWKV | inactive |
| FYCFIPGMSVMAPFVTSYYY | 1.91 ± 0.053 |
| CGEYMRCLNVEYRCVGVKGS | inactive |
| SSPKMMCSFFDMSTLPFVYD | inactive |
| TMCKRLVVTYQLAYWRVSV | inactive |
| NDCISHVSSCRMYDETKVCL | inactive |
| DHCRNKQCVPTWDAYLEQ | -0.339 ± 0.52 |
| IERLTCIYRSFESHLAGFVG | inactive |
| FRIFVRRVI | 2.33 ± 0.084 |
| TGSVVYLKRDVPAIFKFLLV | inactive |
| AVALY | inactive |
| TDGYFYDRSSVERSL | inactive |
| ELPLSSCNRCGECYGLAIVA | inactive |
| VTCSRSLRLSKMFPNKMFLI | inactive |
| HYLRHHIAILSLATGLMETE | inactive |
